From paper PMC11957393

Target: chicken MyD88, full length, Flag-tagged (Flag-MyD88), expressed in HEK293T cells (chicken) (UniProt A5HNF6)
Assay: co-IP; HEK293T cells co-transfected with the indicated plasmids (2 ug/1x10^6 cells), harvested at 30 h; NP-40 lysis buffer; immunoprecipitated by the Flag tag, blotted for HA and Flag tags

Chain of UniProt A5HNF6 (A5HNF6 whole entry): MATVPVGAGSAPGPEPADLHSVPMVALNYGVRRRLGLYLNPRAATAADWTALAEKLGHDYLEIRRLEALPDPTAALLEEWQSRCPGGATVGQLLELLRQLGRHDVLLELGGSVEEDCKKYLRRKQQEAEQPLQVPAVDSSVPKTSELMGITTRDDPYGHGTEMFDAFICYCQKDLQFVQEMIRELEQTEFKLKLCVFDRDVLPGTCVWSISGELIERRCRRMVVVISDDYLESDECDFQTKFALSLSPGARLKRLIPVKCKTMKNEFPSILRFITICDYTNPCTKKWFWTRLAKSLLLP

“VP2-HT: IBDV VP2 with the double mutation Q253H/A284T (VP2 of the rescued HT strain), expressed in HEK293T cells (natural protein)” showed a fold decrease of interaction compared to VP2 of 2.9 fold.
